Data from IntAct's records for PubMed 17891150.

Biological target: TNRC6B, Q9UPQ9-2
Sequence (Q9UPQ9 other isoform, or with tags, fused parts or gaps): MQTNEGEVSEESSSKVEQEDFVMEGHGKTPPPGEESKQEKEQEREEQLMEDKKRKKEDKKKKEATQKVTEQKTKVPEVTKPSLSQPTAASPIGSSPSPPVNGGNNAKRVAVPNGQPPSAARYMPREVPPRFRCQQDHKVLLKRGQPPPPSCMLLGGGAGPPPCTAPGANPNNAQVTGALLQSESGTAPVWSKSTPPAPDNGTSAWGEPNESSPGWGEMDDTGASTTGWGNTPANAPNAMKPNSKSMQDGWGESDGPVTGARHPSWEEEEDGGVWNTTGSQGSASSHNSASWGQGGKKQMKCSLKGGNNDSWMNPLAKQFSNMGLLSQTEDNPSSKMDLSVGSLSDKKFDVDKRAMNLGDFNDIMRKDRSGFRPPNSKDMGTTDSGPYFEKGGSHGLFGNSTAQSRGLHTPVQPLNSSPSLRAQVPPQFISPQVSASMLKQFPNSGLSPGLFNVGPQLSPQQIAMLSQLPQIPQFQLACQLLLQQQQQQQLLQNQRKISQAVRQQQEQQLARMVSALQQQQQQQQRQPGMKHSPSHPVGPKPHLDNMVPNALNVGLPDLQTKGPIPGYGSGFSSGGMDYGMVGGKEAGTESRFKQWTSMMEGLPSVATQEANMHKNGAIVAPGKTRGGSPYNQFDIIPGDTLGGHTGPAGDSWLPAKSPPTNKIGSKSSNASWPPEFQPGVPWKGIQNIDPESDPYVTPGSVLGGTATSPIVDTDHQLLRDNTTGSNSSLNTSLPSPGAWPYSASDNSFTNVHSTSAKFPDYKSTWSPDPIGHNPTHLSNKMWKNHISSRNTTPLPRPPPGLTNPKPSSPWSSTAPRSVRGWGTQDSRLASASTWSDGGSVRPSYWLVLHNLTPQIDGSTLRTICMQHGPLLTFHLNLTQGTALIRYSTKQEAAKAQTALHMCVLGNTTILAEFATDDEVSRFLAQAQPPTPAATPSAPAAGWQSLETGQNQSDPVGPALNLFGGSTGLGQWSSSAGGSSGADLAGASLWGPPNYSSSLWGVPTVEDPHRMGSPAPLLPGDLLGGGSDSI

Sequence of Protein argonaute-2 (Homo sapiens), Q9UKV8 F858A (Q9UKV8 whole entry F858A): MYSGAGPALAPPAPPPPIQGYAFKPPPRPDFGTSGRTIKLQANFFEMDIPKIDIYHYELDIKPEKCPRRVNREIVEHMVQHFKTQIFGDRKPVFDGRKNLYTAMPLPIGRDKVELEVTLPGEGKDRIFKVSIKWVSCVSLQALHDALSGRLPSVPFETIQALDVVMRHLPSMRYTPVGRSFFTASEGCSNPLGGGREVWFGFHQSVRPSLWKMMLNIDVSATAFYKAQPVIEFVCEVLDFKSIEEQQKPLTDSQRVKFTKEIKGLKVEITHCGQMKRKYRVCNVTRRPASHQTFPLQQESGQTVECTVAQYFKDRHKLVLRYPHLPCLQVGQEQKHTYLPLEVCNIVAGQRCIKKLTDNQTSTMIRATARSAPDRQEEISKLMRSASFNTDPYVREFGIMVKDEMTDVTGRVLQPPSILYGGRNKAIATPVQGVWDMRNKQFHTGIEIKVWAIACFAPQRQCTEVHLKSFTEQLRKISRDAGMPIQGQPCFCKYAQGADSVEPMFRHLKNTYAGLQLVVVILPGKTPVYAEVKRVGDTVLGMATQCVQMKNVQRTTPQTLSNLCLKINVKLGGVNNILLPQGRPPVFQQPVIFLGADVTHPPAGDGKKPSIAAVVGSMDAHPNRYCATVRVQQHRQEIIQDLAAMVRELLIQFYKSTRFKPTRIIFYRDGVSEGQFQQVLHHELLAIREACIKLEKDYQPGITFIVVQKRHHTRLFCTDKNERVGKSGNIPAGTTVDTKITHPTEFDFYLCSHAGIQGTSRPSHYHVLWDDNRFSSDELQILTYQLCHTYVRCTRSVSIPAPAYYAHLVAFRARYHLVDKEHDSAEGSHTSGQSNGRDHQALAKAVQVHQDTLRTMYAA
Sequence of Protein argonaute-2 (Homo sapiens), Q9UKV8 Q545A (Q9UKV8 whole entry Q545A): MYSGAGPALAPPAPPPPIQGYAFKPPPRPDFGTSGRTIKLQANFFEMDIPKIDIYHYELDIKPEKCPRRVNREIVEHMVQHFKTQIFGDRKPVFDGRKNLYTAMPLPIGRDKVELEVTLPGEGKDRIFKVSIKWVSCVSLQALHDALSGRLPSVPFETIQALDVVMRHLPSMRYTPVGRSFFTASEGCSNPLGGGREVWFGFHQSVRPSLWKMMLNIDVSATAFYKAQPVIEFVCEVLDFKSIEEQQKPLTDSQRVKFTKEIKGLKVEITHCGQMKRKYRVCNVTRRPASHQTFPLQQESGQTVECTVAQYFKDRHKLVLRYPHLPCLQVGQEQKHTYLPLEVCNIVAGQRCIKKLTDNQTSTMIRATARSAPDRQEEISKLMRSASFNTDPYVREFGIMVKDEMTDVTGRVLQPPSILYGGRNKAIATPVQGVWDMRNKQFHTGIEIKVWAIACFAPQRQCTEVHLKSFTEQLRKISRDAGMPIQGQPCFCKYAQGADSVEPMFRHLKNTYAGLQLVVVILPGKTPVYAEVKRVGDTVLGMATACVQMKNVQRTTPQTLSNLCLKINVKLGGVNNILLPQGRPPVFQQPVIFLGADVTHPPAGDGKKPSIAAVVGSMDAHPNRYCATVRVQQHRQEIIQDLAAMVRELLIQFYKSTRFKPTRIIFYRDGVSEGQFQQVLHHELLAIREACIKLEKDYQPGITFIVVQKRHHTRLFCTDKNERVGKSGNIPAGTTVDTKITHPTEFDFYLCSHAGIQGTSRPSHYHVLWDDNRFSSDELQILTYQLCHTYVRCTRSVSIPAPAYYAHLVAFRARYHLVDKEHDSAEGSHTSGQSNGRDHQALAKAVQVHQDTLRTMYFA
Sequence of Protein argonaute-2 (Homo sapiens), Q9UKV8 F587A (Q9UKV8 whole entry F587A): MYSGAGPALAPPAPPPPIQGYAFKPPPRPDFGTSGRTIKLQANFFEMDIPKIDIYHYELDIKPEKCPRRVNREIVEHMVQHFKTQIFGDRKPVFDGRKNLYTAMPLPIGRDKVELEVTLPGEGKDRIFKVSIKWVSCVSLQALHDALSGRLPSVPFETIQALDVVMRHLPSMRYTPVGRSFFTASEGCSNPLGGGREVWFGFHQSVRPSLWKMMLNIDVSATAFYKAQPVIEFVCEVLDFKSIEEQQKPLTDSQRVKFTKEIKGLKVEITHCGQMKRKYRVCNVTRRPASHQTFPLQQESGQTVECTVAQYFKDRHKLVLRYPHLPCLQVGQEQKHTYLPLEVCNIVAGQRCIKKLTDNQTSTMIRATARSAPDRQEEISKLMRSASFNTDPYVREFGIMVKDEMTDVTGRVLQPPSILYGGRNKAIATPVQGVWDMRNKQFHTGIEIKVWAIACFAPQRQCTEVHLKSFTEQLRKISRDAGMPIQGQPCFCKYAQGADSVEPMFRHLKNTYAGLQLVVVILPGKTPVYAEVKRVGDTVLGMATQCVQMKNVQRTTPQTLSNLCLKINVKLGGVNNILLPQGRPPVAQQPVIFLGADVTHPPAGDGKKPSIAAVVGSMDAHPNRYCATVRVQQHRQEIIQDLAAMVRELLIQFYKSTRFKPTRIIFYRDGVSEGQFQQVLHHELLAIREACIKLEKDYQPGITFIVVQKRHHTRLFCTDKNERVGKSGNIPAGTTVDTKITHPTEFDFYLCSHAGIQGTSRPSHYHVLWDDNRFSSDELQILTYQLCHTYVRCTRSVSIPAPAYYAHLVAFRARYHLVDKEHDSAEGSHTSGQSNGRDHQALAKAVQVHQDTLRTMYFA
Sequence of Protein argonaute-2 (Homo sapiens), Q9UKV8 Y625A (Q9UKV8 whole entry Y625A): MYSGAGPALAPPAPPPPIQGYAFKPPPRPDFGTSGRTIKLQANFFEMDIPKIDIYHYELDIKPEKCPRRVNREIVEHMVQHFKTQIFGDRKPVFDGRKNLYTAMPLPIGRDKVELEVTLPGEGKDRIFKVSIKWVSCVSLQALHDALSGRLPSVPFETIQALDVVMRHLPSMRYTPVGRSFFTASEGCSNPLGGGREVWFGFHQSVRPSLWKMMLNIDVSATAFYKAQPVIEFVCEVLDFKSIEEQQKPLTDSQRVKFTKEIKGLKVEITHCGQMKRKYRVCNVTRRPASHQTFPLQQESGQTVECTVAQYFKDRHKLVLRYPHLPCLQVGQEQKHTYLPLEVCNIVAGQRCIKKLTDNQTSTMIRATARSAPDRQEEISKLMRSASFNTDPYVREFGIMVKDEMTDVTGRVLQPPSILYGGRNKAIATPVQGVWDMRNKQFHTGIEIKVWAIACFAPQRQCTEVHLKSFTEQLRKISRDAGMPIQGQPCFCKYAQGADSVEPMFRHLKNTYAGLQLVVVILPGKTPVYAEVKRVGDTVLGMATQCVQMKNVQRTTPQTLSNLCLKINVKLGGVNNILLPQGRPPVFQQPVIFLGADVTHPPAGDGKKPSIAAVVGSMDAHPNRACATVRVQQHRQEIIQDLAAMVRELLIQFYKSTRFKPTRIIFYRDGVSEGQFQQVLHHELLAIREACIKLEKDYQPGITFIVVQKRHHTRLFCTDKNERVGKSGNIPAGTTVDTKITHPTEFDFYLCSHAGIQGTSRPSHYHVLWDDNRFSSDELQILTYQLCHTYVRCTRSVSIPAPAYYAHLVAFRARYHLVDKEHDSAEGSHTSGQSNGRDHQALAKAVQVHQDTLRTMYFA

Row | effect of a mutation on the interaction | Substance
1 | decreasing interaction | Protein argonaute-2 (Homo sapiens), Q9UKV8 F858A
2 | disrupting interaction | Protein argonaute-2 (Homo sapiens), Q9UKV8 V797A
3 | decreasing interaction | Protein argonaute-2 (Homo sapiens), Q9UKV8 Y805A
4 | disrupting interaction | Protein argonaute-2 (Homo sapiens), Q9UKV8 K533A
5 | disrupting interaction | Protein argonaute-2 (Homo sapiens), Q9UKV8 R583A
6 | disrupting interaction strength | Protein argonaute-2 (Homo sapiens), Q9UKV8 Q545A
7 | disrupting interaction | Protein argonaute-2 (Homo sapiens), Q9UKV8 R647A
8 | disrupting interaction | Protein argonaute-2 (Homo sapiens), Q9UKV8 R812A
9 | decreasing interaction | Protein argonaute-2 (Homo sapiens), Q9UKV8 F587A
10 | decreasing interaction | Protein argonaute-2 (Homo sapiens), Q9UKV8 Y784A
11 | disrupting interaction | Protein argonaute-2 (Homo sapiens), Q9UKV8 F653A
12 | decreasing interaction | Protein argonaute-2 (Homo sapiens), Q9UKV8 Y749A
13 | disrupting interaction | Protein argonaute-2 (Homo sapiens), Q9UKV8 Y529A
14 | disrupting interaction | Protein argonaute-2 (Homo sapiens), Q9UKV8 Y625A
15 | decreasing interaction | Protein argonaute-2 (Homo sapiens), Q9UKV8 V615A
16 | disrupting interaction | Protein argonaute-2 (Homo sapiens), Q9UKV8 I592A
